# Reference: US12404346B2, “Anti-naloxone and anti-naltrexone monoclonal antibodies and methods of production and use thereof” (Siemens Healthcare Diagnostics Inc., priority 2019, dated 2025)
# Where a chain is given by its changes, count along the chain named.
# B1: 179A 6H6: anti-naloxone monoclonal antibody generated using naloxone-3-Val-mcKLH; heavy chain SEQ ID NO:221, light chain SEQ ID NO:225 (antibody, V domains shown)
# VH: MYLGLNCVIIVFLLKGVQSEVKLEESGGGLVPPGGSMKLSCSVSGFTFSDAWIDWVRQSPEKGLEWIAESRNKANNYAIYYTESVKGRFTISRDDSKSRVYLQMNNLRVEDTGIYYCTGPDYDSYWGGTLVTVSA
# VL: MEFQTQVFVFVLLWLSGVDGDVVMTQSQKIMSTSVGDRVSITCKASQNVRTAVTWYQLKPGQSPKALIYLASNRHTGVPDRFRGSGSGTDFTLTIINVQSEDLADYFCLQHWNYPLTFGAGTKLELK
# modifications: Amino acid sequence of heavy chain of monoclonal antibody 179A 6H6; Amino acid sequence of light chain of monoclonal antibody 179A 6H6
# B2: 180C 2A12: anti-naltrexone monoclonal antibody generated using naltrexone-3-Val-mcKLH; heavy chain SEQ ID NO:1, light chain SEQ ID NO:5 (antibody)
# heavy: MGWSWIFLFLLSGTAGVHCQVQLQQSGPELVKPGGSVKLSCKASGYIFNDYTIHWMKQSPGQGLEWIGWMNRRSFNTMYNDKFKGKATMTVDKSSSTAYIQLSSLTSDDSAVYFCVRDVYDNLDYWGQGTSVTVSSAKTTPPSVYPLAPGSAAQTNSMVTLGCLVKGYFPEPVTVTWNSGSLSSGVHTFPAVLQSDLYTLSSSVTVPSSTWPSETVTCNVAHPASSTKVDKKIVPRDCGCKPCICTVPEVSSVFIFPPKPKDVLTITLTPKVTCVVVDISKDDPEVQFSWFVDDVEVHTAQTQPREEQFNSTFRSVSELPIMHQDWLNGKEFKCRVNSAAFPAPIEKTISKTKGRPKAPQVYTIPPPKEQMAKDKVSLTCMITDFFPEDITVEWQWNGQPAENYKNTQPIMDTDGSYFIYSKLNVQKSNWEAGNTFTCSVLHEGLHNHHTEKSLSHSPGK
# light: MKLPVRLLVLMFWIPASSSDVLMTQTPLSLPVSLGDQASISCRSSQSIVHSNGNTYLEWYLQKPGQSPRLLIYKVSNRFSGVPDRFSGSGSGTDFTLRISRVEAEDLGLYYCFQGSHVPLTFGAGTKLELKRADAAPTVSIFPPSSEQLTSGGASVVCFLNNFYPRDINVKWKIDGSERQNGVLNSWTDQDSKDSTYSMSSTLTLTKDEYERHNSYTCEATHKTSTSPIVKSFNRNEC
# modifications: Amino Acid sequence of heavy chain of monoclonal antibody SHC 004; Amino acid sequence of Light Chain of monoclonal antibody SHC 004
# B3: 179B 9E7: anti-naloxone monoclonal antibody generated using naloxone-3-Val-mcKLH; heavy chain SEQ ID NO:241, light chain SEQ ID NO:245 (antibody)
# heavy: MYLGLNCVIIVFLLKGVQSEMKLEESGGGLVQPGGSMKLSCTASGFTFSDAWMDWVRQSPEKGLEWVAEIRNKAYNHATYYAESVRGRFTISRDDSKSKMFLEMNSLRPEDTGIYYCIGGIWTDFDYGQGTTLTVSS
# light: MESQTQVFVYMLLWLSGVDGDIVMTQSQKFMSTSVGDRVSVTCKASQNVGINVAWYQQKSGQPPKALIYSASSRYSGVPDRFTGSGSGTDFTLTISNVQSEDLAEYFCHQYNNYPLTFGAGTKLDLK
# modifications: Amino acid sequence of heavy chain of monoclonal antibody 179B 9E7; Amino acid sequence of light chain of monoclonal antibody 179B 9E7
# B4: 180A 3D3: anti-naltrexone monoclonal antibody generated using naltrexone-3-Val-mcKLH; heavy chain SEQ ID NO:21, light chain SEQ ID NO:25 (antibody)
# heavy: MYLGLNCVFIVFLLKGVQSEVNLEESGGGLVQPGGSMKLSCVASGFTFSNYWMNWVRQSPERGLEWVAEISLKSYNYATHYAESVKGRFTISGDESKNSVYLQMNNLRAEDTGIYFCTRGDSYALDYGQRTLVTVSS
# light: MEFQTQVLMSLLLCMSGACADIVMTQSPTFLAVTVSKKVTISCTASESLYSSKHKVHYLAWYQKKPEQSPKLLIYGASNRYIGVPDRFTGSGSGTDFTLTISSVQVEDLTHYYCAQFYSYPYTFGGGKLEIK
# modifications: Amino Acid sequence of heavy chain of monoclonal antibody 180A 3D3; Amino Acid sequence of light chain of monoclonal antibody 180A 3D3
# B5: 179B 9E12: anti-naloxone monoclonal antibody generated using naloxone-3-Val-mcKLH; heavy chain SEQ ID NO:181, light chain SEQ ID NO:185 (antibody, V domains shown)
# VH: MGWSWIFLFLLSGTAGVHCQIQLQQSGPELVKPGASVKISCKASDYSFTNSYINWVKQRPGQGLEWIGWIYPGSTNTKYNEKFWDKATLTVDTSSNTAYMELRGLTSEDSAVYFCEMGTHYSYDVMDWGQGTSVTVSS
# VL: MEFQTQVFVFVLLWLSGVDGDIVMTPSQKFMSTSVGDRVSITCKASQNVRTSVGWYQQKPGQSPKPLIYATSNRHTGVPDRFTGSGSGTDFSLTITNVQSEDQADYFCLQHWNYPWTFGGGTKLEIK
# modifications: Amino acid sequence of heavy chain of monoclonal antibody 179B 9E12; Amino acid sequence of light chain of monoclonal antibody 179B 9E12
# B6: 179B 10A7: anti-naloxone monoclonal antibody generated using naloxone-3-Val-mcKLH; heavy chain SEQ ID NO:201, light chain SEQ ID NO:205 (antibody, V domains shown)
# VH: B5 VH with N50K, T75A, T77I, W84R, M100I, E101Q, R103S, G104S, S122T
# VL: B5 VL with T71A
# modifications: Amino acid sequence of heavy chain of monoclonal antibody 179B 10A7; Amino acid sequence of light chain of monoclonal antibody 179B 10A7
# Key:
# [1] = Randox naloxone assay, competitive chemiluminescent immunoassay; cited from earlier work
# [2] = inhibition ELISA, anti-naloxone monoclonal antibodies against key opioids (FIG. 7); assay type: binding; settings: free drug 20 μg/mL, plates coated with ovalbumin conjugate
# Description: (§1) Mice with good anti-drug antibody titers and binding to free drug in the ELISA inhibition assays were selected to proceed with generation of monoclonal antibodies, in a similar manner to that described in U.S. Pat. No. 9,815,907 (issued to Sharma et al. on Nov. 14, 2017). In particular, mice with highest titers and best specificity were boosted three days prior to fusion. On the day of fusion, spleen cells were harvested from these mice and were fused with myeloma cell line P3X63Ag8.653 using PEG-assisted fusion protocols. After about ten days, hybridoma supernatants were screened for anti-naloxone and anti-naltrexone antibodies using a plate ELISA (direct binding and inhibition ELISA for specificity). Positive clones were further expanded and sub-cloned, and supernatants were purified using a Protein A SEPHAROSE® (GE Healthcare, Chicago, IL) column. Purified antibody samples were tested using ELISA for binding to the immunogen (i.e., a conjugate of drug-carrier protein) and to free opioids.
# (§2) Antibody solution (Immune mouse bleeds or hybridoma clones supernatant or purified antibody) was screened using an inhibition ELISA procedure according to the following protocol. […] Plate coating was performed for 1 hour or more at room temperature or overnight at about 2° C. to 8° C. The plates were then flicked dry and blocked with 200 μL per well of blocking buffer solution (0.5% Casein solution in PBS containing 0.05% TWEEN® 20 surfactant (Croda International PLC, Snaith, United Kingdom). Plate blocking was performed by incubation for 30 minutes or more at room temperature with plate shaking. The plates were washed using a plate washer (BioTek®, Winooski, VT) with plate stacker with the washing buffer being MILLIQ® water (Millipore Corporation, Billerica, MA) containing 0.05% TWEEN® 20. The monoclonal antibody to be screened was then added to each well along with free drug as follows: 25 μL per well of appropriately diluted culture supernatant (or antibody solution) and added 25 μL of 20 μg/mL of free drug. Incubation was performed for about 1 hour at room temperature with plate shaking. The plate was washed. An enzyme conjugate (goat anti-mouse IgG coupled to HRP diluted in blocking buffer diluted to 1:3000) was added at 50 μL per well. Incubation was performed for about 1 hour at room temperature with shaking. The plate was then washed, and a chromogenic solution (TMB from Moss Substrates, Pasadena MD) was added at a volume of 100 μL per well. If a desired antibody was present in the hybridoma supernatant, then a decrease in optical density was observed compared to the well containing no free drug. The plates were read at 650 nm wavelength using an ELISA plate reader (Molecular Devices, San Jose, CA). Note: appropriate dilution of antibody solution was determined by performing a titration ELISA. The antibody dilution was chosen where around 1.0 optical density was observed.
# [3] = opiate enzyme multiplied immunoassay with antibody blocker (FIG. 11, FIG. 12); settings: cutoff 300 ng/mL; FIG. 11 and FIG. 12
# [4] = naloxone and naltrexone specific immunoassays (FIG. 9, FIG. 10); assay type: binding; settings: FIG. 9 and FIG. 10
# Description: An EMIT® II (enzyme multiplied immunoassay, Siemens Healthineers, Newark, DE) Plus Naloxone and/or Naltrexone Assay is a homogeneous enzyme immunoassay technique used for the analysis of specific compounds in human urine. The assay is based on competition between drug in the specimen and drug labeled with glucose-6-phosphate dehydrogenase (rG6PDH) for antibody binding sites. Enzyme activity decreases upon binding to the antibody, so the drug concentration in the specimen can be measured in terms of enzyme activity. Active enzyme converts nicotinamide adenine dinucleotide (NAD) to NADH in the presence of glucose-6-phosphate (G6P), resulting in an absorbance change that is measured spectrophotometrically.
# The EMIT® assay format comprises an antibody/substrate reagent, known as reagent 1. This reagent includes the antibody as well as buffers, preservatives, and stabilizers for the assay. The EMIT® assay format also comprises an enzyme reagent, known as reagent 2. This reagent includes the conjugate as well as buffers, preservatives, and stabilizers for the assay.
# [5] = hydrocodone assay with antibody blocker (FIG. 13); settings: cutoff 300 ng/ml
# [6] = inhibition ELISA, anti-naltrexone monoclonal antibodies against key opioids (FIG. 8); assay type: binding; settings: free drug 20 μg/mL, plates coated with ovalbumin conjugate
# Description: as §1, §2
molecule,measurement,setting,value
C=CCN1CC[C@]23c4c5ccc(O[C@@H]6O[C@H](C(=O)O)[C@@H](O)[C@H](O)[C@H]6O)c4O[C@H]2C(=O)CC[C@@]3(O)[C@H]1C5 [naloxone 3-B-D glucuronide],level of cross-reactivity,[1],70.6%
B1,specificity for naloxone over the other key opioids tested in the inhibition ELISA assay,[2],good specificity for naloxone
same,change of naloxone/naltrexone cross reactivity response in the presence of the antibody blocker,[3],cross reactivity of naloxone changes from a positive to a negative response to the cutoff
same,detection of naloxone and naltrexone in specific assays,[4],detects both naloxone and naltrexone at substantially the same specificity
B2,effect of the antibody blocker on amount of naloxone and naltrexone giving a negative response,[5],increase the amount of naloxone and naltrexone that produces a negative response to the cutoff
same,detection of naloxone and naltrexone in specific assays,[4],"capable of detecting naloxone in addition to naltrexone, albeit at a lower specificity compared to naltrexone"
same,specificity for naltrexone over the other key opioids tested in the inhibition ELISA assay,[6],good specificity for naltrexone
B3,specificity for naloxone over the other key opioids tested in the inhibition ELISA assay,[2],good specificity for naloxone
B4,change of naloxone/naltrexone cross reactivity response in the presence of the antibody blocker,[3],cross reactivity of naloxone and naltrexone changes from a positive to a negative response to the cutoff
same,specificity for naltrexone over the other key opioids tested in the inhibition ELISA assay,[6],good specificity for naltrexone
B5,specificity for naloxone over the other key opioids tested in the inhibition ELISA assay,[2],good specificity for naloxone
B6,specificity for naloxone over the other key opioids tested in the inhibition ELISA assay,[2],good specificity for naloxone
